Assay results taken from the supplement of paper PMC9170038.

System: MS2 coat protein
Assay: apparent KD of MS2 coat protein; designed switch direction (-1 OFF switch, 1 ON switch): -1; higher = weaker reporter binding
Method in brief: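 An oligonucleotide input, 200 uM small-molecule ligand, or no input was present during titration of SNAP-549-labelled MS2 coat protein, which was doubled from 0.7 or 1.5 nM to 3 µM. Designed RNA switches had been transcribed on Illumina chips by stalled E. coli RNA polymerase. Apparent KD per design is the median over clusters of curves fitted to normalised cluster fluorescence.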

[1] = input ligand: microRNA oligo, concentration not stated
[2] = Eterna round: R95, input ligand: FMN 200 uM
[3] = Eterna round: R95, input ligand: microRNA oligo, concentration not stated
[4] = Eterna round: R95, input ligand: none

| Sequence | apparent KD of MS2 coat protein (input ligand: FMN 200 uM) [nM] | apparent KD of MS2 coat protein (input ligand: none) [nM] | apparent KD of MS2 coat protein [1] [nM] | apparent KD of MS2 coat protein [2] [nM] | apparent KD of MS2 coat protein [3] [nM] | apparent KD of MS2 coat protein [4] [nM] |
| --- | --- | --- | --- | --- | --- | --- |
| UUGUAUAUAGGAUAUGUAAGAAGAAACAUGAGGAUCACCCAUGUAGCCUCAAAUUUUAUGACAGAAGGAUAUGUUA [Default title] (Eterna round: R97, puzzle: Exclusion 5) | 36.2 | 56 | – | – | – | – |
| UUGUUACAUGAGGAUCACCCAUGUGAGGAUAUGGUUAAGUAAUGUAAUGUAAAGUAAUCCAGAAGGCACAUGUU [1st #25] (Eterna round: R97, puzzle: Exclusion 1) | 353 | 196 | – | – | – | – |
| UUGUUAUAUGUAGGAUAUGCAUAUUAUUAUUAUGCAGAAGGACAUGAGGAUCACCCAUGUAUAUUGUUGUUAUAUAUUAUAUAU [Title] (Eterna round: R96, puzzle: Exclusion NG 1) | – | – | 18.2 | – | – | – |
| UUGUUCCGUGUAGGAUAUUGGUCUCCCUCGGGCCGAGAAGGACAUGAGGAUCACCCAUGUAUGCUAUUAUCGCGCGUGGCGCAC [Design 93] (Eterna round: R96, puzzle: Exclusion NG 1) | 138 | 47.3 | 34.1 | – | – | – |
| UUGUUGUAUGUAGGAUAUGCAUAUUGUUAUUAUGCAGAAGGACAUGAGGAUCACCCAUGUAUAUUACUAUUAUGUACUAUAUAU [MOD of Hoglahoo's a different Title] (Eterna round: R96, puzzle: Exclusion NG 1) | 106 | 32.6 | 25.5 | – | – | – |
| UUGUUGUGUGUAGGAUAUGCAUGUUAUUAUUAUGCAGAAGGACAUGAGGAUCACCCAUGUGUAUUAUUAUUAUAUAUUAUAUAU [Title] (Eterna round: R96, puzzle: Exclusion NG 1) | 21.1 | 22.5 | 13.8 | – | – | – |
| UUUAAGUCAGGAUAUACAUGAGGAUCACCCAUGUAAAAUUUUAAUUUAAUUUGAAGGUGUAGAAGGGACAAAUU [Ex3 #37] (Eterna round: R97, puzzle: Exclusion 3) | 23 | 24.6 | – | – | – | – |
| UUUAAUUUUUUUUUUUUACAAGCUUUUUGCUCGUCUUAUACAUGAGGAUCACCCAUGUAAGUGGGAGAUAAAUUAUC [JMF 21] (puzzle: Sensor v3, turn-off variant 2) | – | – | – | 76.6 | 53.3 | 90.4 |
| UUUAAUUUUUUUUUUUUACAAGCUUUUUGCUCGUCUUAUACAUGAGGAUCACCCAUGUAGGUGAAAAGUAAAUUAUC [JMF 45] (puzzle: Sensor v3, turn-off variant 2) | – | – | – | 15.8 | 82.1 | 20.8 |
| UUUAAUUUUUUUUUUUUACAAGCUUUUUGCUCGUCUUAUACAUGAGGAUCACCCAUGUAGGUGAAAGGUAAAUUAUC [JMF 65] (puzzle: Sensor v3, turn-off variant 2) | – | – | – | 32 | 117 | 30.9 |
| UUUAAUUUUUUUUUUUUACAAGCUUUUUGCUCGUCUUAUACAUGAGGAUCACCCAUGUGAAUGGAAGGUAAAUUAUC [JMF 68] (puzzle: Sensor v3, turn-off variant 2) | – | – | – | 17.3 | 18.4 | 20.4 |
| UUUAAUUUUUUUUUUUUACAAGCUUUUUGCUCGUCUUAUACAUGAGGAUCACCCAUGUGAGUGGAGGGUAAAUUAUC [JMF 88] (puzzle: Sensor v3, turn-off variant 2) | – | – | – | 17.8 | 45.8 | 16.3 |
| UUUAAUUUUUUUUUUUUACAAGCUUUUUGCUCGUCUUAUACAUGAGGAUCACCCAUGUGAGUGGGAGAUAAAUUAUC [JMF 22] (puzzle: Sensor v3, turn-off variant 2) | – | – | – | 98.2 | 213 | 170 |
| UUUAAUUUUUUUUUUUUACAAGCUUUUUGCUCGUCUUAUACAUGAGGAUCACCCAUGUGGGUAAAAGGUAAAUUAUC [JMF 63] (puzzle: Sensor v3, turn-off variant 2) | – | – | – | 15.3 | 32.8 | 17.3 |
| UUUAAUUUUUUUUUUUUACAAGCUUUUUGCUCGUCUUAUACAUGAGGAUCACCCAUGUGGGUGGAAGAUAAAUUAUC [JMF 12] (puzzle: Sensor v3, turn-off variant 2) | – | – | – | 113 | 75.1 | 134 |
| UUUAGUUCAGGAUAUGUAGAUAUUAACAUGAGGAUCACCCAUGUCGAUCCUGAAUUAACUACAGAAGGGAACAUUU [Mod of Brourd 5 - Jieux - Exclusion 5] (Eterna round: R97, puzzle: Exclusion 5) | 69.6 | 17.8 | – | – | – | – |

| Sequence | apparent KD of MS2 coat protein (input ligand: FMN 200 uM) [nM] | apparent KD of MS2 coat protein (input ligand: none) [nM] | apparent KD of MS2 coat protein [1] [nM] | apparent KD of MS2 coat protein [2] [nM] | apparent KD of MS2 coat protein [3] [nM] | apparent KD of MS2 coat protein [4] [nM] |
| --- | --- | --- | --- | --- | --- | --- |
| UUUAGUUCAGGAUAUGUAGAUUUUAACAUGAGGAUCACCCAUGUGGAUCCUGAAUUAACUACAGAAGGGAACAUUU [Mod of Brourd 3 - Jieux - Exclusion 5] (Eterna round: R97, puzzle: Exclusion 5) | 294 | 43 | – | – | – | – |
| UUUAUAUAUGAAGGAUAUACUUAACAUGAGGAUCACCCAUGUGGUGUUGUGAGUGAGUGAGUUUAGUAGAAGGUCAAUUCUUUU [JMF's solution 91] (Eterna round: R96, puzzle: Exclusion NG 2) | 731 | 362 | 335 | – | – | – |
| UUUAUGUCAGGAUAUACAUGAGGAUCACCCAUGUAUAUCUAAAAAUAUACAUGGGUAUGUAGAAGGGACCUCCU [Omei Ex3 Pseudoloop 2] (Eterna round: R97, puzzle: Exclusion 3) | 52.6 | 146 | – | – | – | – |
| UUUAUGUCAGGAUAUGAGUAGUAGAACAAUAGUACUACUACUCAGAAGGGACAUGAGGAUCACCCAUGUUCCUC [Fiskers Ex 4 Super stable 44 mod 20] (puzzle: Exclusion 4) | – | – | – | – | 16.7 | – |
| UUUAUGUCAGGAUAUGAGUAGUAGAACAAUAGUACUACUACUCAGAAGGGACAUGAGGAUCACCCAUGUUCUUC [Fiskers Ex 4 Super stable 44 mod 23] (puzzle: Exclusion 4) | – | – | – | – | 16.3 | – |
| UUUAUGUCAGGAUAUGAGUAGUAGAACAAUAGUACUACUACUCAGAAGGGACAUGAGGAUCACCCAUGUUUCUC [Fiskers Ex 4 Super stable 44 mod 24] (puzzle: Exclusion 4) | – | – | – | – | 22.6 | – |
| UUUAUGUCAGGAUAUGAUUAGAUCUACUUCGGUAGAUCUAAUCAGAAGGGACAUGAGGAUCACCCAUGUAGUUU [Ex4 - 3 - 13] (Eterna round: R96, puzzle: Exclusion 4) | 671 | 180 | 137 | – | – | – |
| UUUAUGUCAGGAUAUGAUUAGAUCUACUUCGGUAGAUCUAAUCAGAAGGGACAUGAGGAUCACCCAUGUAGUUU [Ex4 - 3 - 13] (puzzle: Exclusion 4) | – | – | – | – | 119 | – |
| UUUAUUUUGCAAGGAUAUGUUUAAUUUUAGUUUCCUUAAACAUGAGGAUCACCCAUGUUAUACUUACAGAAGGUGCAUAAUUUU [JR_ExcNG2_Sub036] (Eterna round: R96, puzzle: Exclusion NG 2) | – | – | 73.3 | – | – | – |
| UUUCGGCAUGUAGGAUAUGGAUCCGAUUAGGAUUUAGAAGGACAUGAGGAUCACCCAUGUGCAUUUAAUUGGUCAUUACCGUUU [EXclNG1-LROPPY08] (Eterna round: R96, puzzle: Exclusion NG 1) | – | – | 41.9 | – | – | – |
| UUUCGGCAUGUAGGAUAUGGGUCCGAUUAGGAUUUAGAAGGACAUGAGGAUCACCCAUGUGCAUUUAAUUGGUCAUUACCGUUU [EXclNG1-LROPPY09] (Eterna round: R96, puzzle: Exclusion NG 1) | 86.7 | 66 | 47.8 | – | – | – |
| UUUGAAUAAGUGAGGAUAUACUGUUAGUAAUGAUUGUAGAAGGUACAUGAGGAUCACCCAUGUUUAUUAUUUAU [JR_BME4_Sub039] (puzzle: Brourd's mod of Exclusion 4) | – | – | – | – | 20.7 | – |
| UUUGACUAAGGAUAUCCUUUUGACCACAUGAGGAUCACCCAUGUAUUCCACAAGUGCGAAGGAGAAGGUGGGAAGG [Eternabot (L2) Solution 28] (Eterna round: R97, puzzle: Exclusion 5) | 65.6 | 56.1 | – | – | – | – |
| UUUGCAAGCUAUAGAUCCCACAUGAGGAUCACCCAUGUUGCUGCCGUGAGGUAGCAUUUAACUAUUGCUCGUCUUAU [JL TOV1 3.51] (Eterna round: R97, puzzle: Sensor, turn-off variant 1) | 190 | 245 | – | – | – | – |
| UUUGCAAGCUUAUGAUCCCACAUGAGGAUCACCCAUGUUGCUGCCGGUGACGGUAGCAUAACAUAUGCUCGUCUUAU [JL TOV1 3.63] (Eterna round: R97, puzzle: Sensor, turn-off variant 1) | 791 | 1170 | – | – | – | – |
